Results from patent publication US20240059757A1 (VIR BIOTECHNOLOGY, published 2024).
Numbering of substitutions follows the chain as printed. Where two headings read alike, the source gives them in different places.

Key:
[1] = target: T1, SARS-CoV RBD (Sino Biological) (SARS-CoV, UniProt P59594 306-527); experiment: BLI
[2] = target: T2, SARS-CoV Spike protein (SARS-CoV, UniProt P59594 14-1255); experiment: cell-based or functional assay
[3] = target: T1, SARS-CoV RBD (Sino Biological)
[4] = target: WIV-1 spike protein (on VSV pseudovirus) (WIV-1); experiment: cell-based or functional assay
[5] = target: T2, SARS-CoV Spike protein; experiment: cell-based or functional assay; remark: listed apart in the source
[6] = target: PANG/GD spike protein (PANG/GD); experiment: cell-based or functional assay
[7] = target: PANG/GX spike protein (PANG/GX); experiment: cell-based or functional assay
[8] = target: T1, SARS-CoV RBD (Sino Biological); experiment: BLI; remark: listed apart in the source

B1: S2X259 variant antibody, VH SEQ ID NO 408 / VL SEQ ID NO 442 (antibody, V domains shown)
VH: QVQLVQSGAEVKKPGSSVKVSCKASGGIFNTYTISWVRQAPGQGLEWMGRIILMSGMANYAQKIQGRVTITADKSTSTAYMELTSLRSDDTAVYYCARGFNGNYYGWGDDDAFDISGQGTLVTVYS
VL: QTVLTQPPSVSGAPGQRVTISCTGSNSNIGAGYDVHWYQQLPGTAPKLLISGNSNRPSGVPDRFSGSKSGTSASLAITGLQAEDEADYYCQSYDSSLSGPNWVFGGGTKLTVL
Q: With B1 as the binder, how does the Kd [1] read?
A: Its Kd is 0.397 nM.

Q: What about the “neutralization IC50” value [2] of the same binder?
A: Its value is 53.1 ng/mL.

B2: S2X259 variant antibody, VH SEQ ID NO 459 / VL SEQ ID NO 445 (antibody, V domains shown)
VH: B1 VH with M57K, S116W, Y125S
VL: B1 VL with S51V
Q: How did the Kd [3] turn out when B2 was run?
A: The Kd was 0.792 nM.

Q: What about the koff [3] of the same binder?
A: The koff was 0.000273 s⁻¹.

Q: And the kon [3]?
A: Its kon is 345000 M⁻¹ s⁻¹.

B3: S2X259 variant antibody, VH SEQ ID NO 460 / VL SEQ ID NO 445 (antibody, V domains shown)
VH: B1 VH with M54I, M57I, S116W, Y125S
VL: B1 VL with S51V
Q: Which results are given for B3?
A: Kd [3]: 1.59 nM; koff [3]: 0.000621 s⁻¹; kon [3]: 391000 M⁻¹ s⁻¹

B4: S2X259 variant antibody, VH SEQ ID NO 408 / VL SEQ ID NO 444 (antibody, V domains shown)
VH: B1 VH
VL: B1 VL with S51Y
Q: What does the source list for B4?
A: Kd [1]: 1.34 nM; neutralization IC50 [2]: 81.1 ng/mL

B5: S2X259 variant antibody, VH SEQ ID NO 408 / VL SEQ ID NO 443 (antibody, V domains shown)
VH: B1 VH
VL: B1 VL with S51A
Q: B5 was tested. Which Kd [1] did it give?
A: The Kd was 0.521 nM.

Q: What about the “neutralization IC50” value [4] of the same binder?
A: Its value is under 100 ng/mL.

Q: What about the “neutralization IC50” value [5] of the same binder?
A: Its value is under 100 ng/mL.

Q: What about the “neutralization IC50” value [6] of the same binder?
A: The value was under 100 ng/mL.

Q: What about the “neutralization IC50” value [7] of the same binder?
A: The value was under 100 ng/mL.

Q: And the “neutralization IC50” value [2]?
A: The value was 35.3 ng/mL.

B6: S2X259 variant antibody, VH SEQ ID NO 448 / VL SEQ ID NO 412 (antibody, V domains shown)
VH: B1 VH with N30S
VL: B1 VL with S51C
Q: Does B6 bind [1]?
A: Result: no binding

B7: S2X259 variant antibody, VH SEQ ID NO 446 / VL SEQ ID NO 412 (antibody, V domains shown)
VH: B1 VH with M54I, M57I
VL: B1 VL with S51C
Q: Which Kd [1] does the source give for B7 here?
A: Its Kd is 5.58 nM.

B8: S2X259 variant antibody, VH SEQ ID NO 408 / VL SEQ ID NO 445 (antibody, V domains shown)
VH: B1 VH
VL: B1 VL with S51V
Q: Which results are given for B8?
A: Kd [1]: 0.53 nM; Kd [8]: 0.176 nM; koff [8]: ~7.24e-05 s⁻¹; kon [8]: 411000 M⁻¹ s⁻¹; neutralization IC50 [4]: < 100 ng/mL; neutralization IC50 [5]: < 100 ng/mL; neutralization IC50 [6]: < 100 ng/mL; neutralization IC50 [7]: < 100 ng/mL; neutralization IC50 [2]: 36 ng/mL

B9: S2X259 variant antibody, VH SEQ ID NO 458 / VL SEQ ID NO 445 (antibody, V domains shown)
VH: B1 VH with S116W, Y125S
VL: B1 VL with S51V
Q: What does the source list for B9?
A: Kd [8]: 0.455 nM; koff [8]: 0.000173 s⁻¹; kon [8]: 380000 M⁻¹ s⁻¹
